Patent publication US20100162418A1 (Kyowa Kirin, published 2010)
Values belong to the binder of their own block, whether it stands above or below them.

Columns and labels:
[1] = biological target: T1, human plasma-derived Protein S (manufactured by Calbiochem) (human, UniProt P07225 42-676, gamma-carboxylated glutamic acid (Gla) in the N-terminal Gla domain; complex type N-glycoside-linked sugar chains (Asn458, Asn468, Asn489), partly with core alpha1,6-fucose (Fuc 0.26 per Man 3.00)); assay: SPR (Biacore), plasma Protein S immobilised on CM5, E-selectin Fc as analyte
T1 construct: Bought protein purified from human plasma; also called native Protein S; Human plasma Protein S
T1 sequence: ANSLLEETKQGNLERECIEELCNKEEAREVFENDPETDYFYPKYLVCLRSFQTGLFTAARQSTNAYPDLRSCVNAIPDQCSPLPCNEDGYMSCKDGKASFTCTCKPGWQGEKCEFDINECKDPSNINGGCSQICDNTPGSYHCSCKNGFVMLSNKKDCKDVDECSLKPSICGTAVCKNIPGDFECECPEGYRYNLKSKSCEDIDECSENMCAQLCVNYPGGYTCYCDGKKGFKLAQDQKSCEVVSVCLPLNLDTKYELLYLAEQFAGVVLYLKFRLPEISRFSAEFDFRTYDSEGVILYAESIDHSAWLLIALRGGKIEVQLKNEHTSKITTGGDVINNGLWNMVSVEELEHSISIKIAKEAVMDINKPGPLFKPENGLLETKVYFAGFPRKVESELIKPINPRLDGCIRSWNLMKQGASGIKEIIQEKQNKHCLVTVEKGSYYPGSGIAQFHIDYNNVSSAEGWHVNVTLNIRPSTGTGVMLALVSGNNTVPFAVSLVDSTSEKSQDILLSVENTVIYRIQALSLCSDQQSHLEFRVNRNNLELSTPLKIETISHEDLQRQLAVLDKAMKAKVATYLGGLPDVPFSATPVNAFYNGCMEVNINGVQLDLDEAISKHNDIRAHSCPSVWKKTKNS

[2] = biological target: T2, MSPS, purified recombinant human Protein S obtained from FUT8 knockout CHO/DG44 cells (human, UniProt P07225 42-676, gamma-carboxylated glutamic acid (Gla) in the Gla domain; complex type N-glycoside-linked sugar chains without fucose (fucose not detected)); assay: SPR (Biacore), HMGB-1 immobilised on C1 chip, MSPS as analyte
T2 construct: It differs from KCPS only in glycosylation (no core fucose); also called fucose-free recombinant Protein S
T2 sequence: T1 sequence

[3] = biological target: T3, recombinant human RAGE-Fc fusion protein (manufactured by R&D Systems) (human, UniProt Q15109 24-344); assay: SPR (Biacore), HMGB-1 immobilised on C1 chip, RAGE-Fc (50000, 5000, 500 ng/mL) as analyte
T3 construct: Bought fusion protein; also called recombinant soluble RAGE-human IgG1 Fc chimeric protein; not shown: Fc of human IgG1
T3 sequence (Q15109 24-344 limits assumed): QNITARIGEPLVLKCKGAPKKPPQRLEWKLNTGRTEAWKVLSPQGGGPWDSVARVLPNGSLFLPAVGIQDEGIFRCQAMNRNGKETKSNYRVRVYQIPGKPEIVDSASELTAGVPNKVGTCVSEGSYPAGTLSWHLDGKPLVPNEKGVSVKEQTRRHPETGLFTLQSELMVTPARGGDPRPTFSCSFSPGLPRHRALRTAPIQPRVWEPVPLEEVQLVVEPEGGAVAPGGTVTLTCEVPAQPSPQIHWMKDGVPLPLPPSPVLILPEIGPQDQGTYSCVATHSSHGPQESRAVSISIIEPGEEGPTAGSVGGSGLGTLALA
Source text: (§1) Using an amine coupling kit (manufactured by Biacore), human plasma-derived Protein S (manufactured by Calbiochem), human plasma-derived complement C4 binding protein (C4BP; manufactured by BioMed), and human plasma-derived complement C1 inhibitor Berinert P (manufactured by CSL Behring) were respectively immobilized on flow cells of a CM5 sensor chip (manufactured by Biacore). An immobilized amount of the ligand protein on the respective flow cells was set to the range of 2400 to 3600 resonance units (hereinafter referred to as “RU”). The complement C4 binding protein and the complement C1 inhibitor are known as plasma glycoproteins having the anti-inflammatory effect. Then, a recombinant human RAGE-Fc fusion protein (manufactured by R&D Systems) diluted to given concentrations (50000, 25000, 12500, 6250, 3125, and 1562 ng/mL) using HBS-EP+buffer (manufactured by Biacore), as an analyte, was allowed to run and bind to the ligand-immobilized flow cells at a temperature of 25° C., a flow rate of 5 μL/min, association time of 140 seconds, and dissociation time of 240 seconds. The chip was regenerated by a flow of an aqueous glycine solution (pH 1.5) (manufactured by Biacore) for 60 seconds. […]

[4] = biological target: T3, recombinant human RAGE-Fc fusion …; assay: SPR (Biacore), S100A8/A9 immobilised on C1 chip, RAGE-Fc (50000, 5000, 500 ng/mL) as analyte
Source text: as §1

[5] = biological target: T2, MSPS, purified recombinant human …; assay: SPR (Biacore), S100A8/A9 immobilised on C1 chip, MSPS as analyte
Experimental: Using an amine coupling kit (manufactured by Biacore), recombinant human HMGB-1 (manufactured by R&D Systems), recombinant human Mac-1 heterodimer (αmβ2 integrin, CD11b/CD18; manufactured by R&D Systems), and recombinant human S100A8/A9 (manufactured by R&D Systems) were respectively immobilized at 200 RU, 1200 RU, and 400 RU on flow cells of a Series S C1 sensor chip (manufactured by Biacore). The measurement was carried out in the same manner as in Example 5, except that the recombinant human RAGE-Fc fusion protein (manufactured by R&D Systems) diluted to given concentrations of 50000, 5000 or 500 ng/mL was used as an analyte.
Next, using the same sensor chip, the same binding experiment was carried out using a recombinant human RAGE-Fc fusion protein (5000 ng/mL) mixed with MSPS (final concentration of 50000 and 5000 μg/mL), as an analyte.

binding result [1]: no binding
B1: human E-selectin Fc fusion protein (manufactured by R&D systems) (Fc fusion, UniProt P16581 22-556, looked up)
chain: WSYNTSTEAMTYDEASAYCQQRYTHLVAIQNKEEIEYLNSILSYSPSYYWIGIRKVNNVWVWVGTQKPLTEEAKNWAPGEPNNRQKDEDCVEIYIKREKDVGMWNDERCSKKKLALCYTAACTNTSCSGHGECVETINNYTCKCDPGFSGLKCEQIVNCTALESPEHGSLVCSHPLGNFSYNSSCSISCDRGYLPSSMETMQCMSSGEWSAPIPACNVVECDAVTNPANGFVECFQNPGSFPWNTTCTFDCEEGFELMGAQSLQCTSSGNWDNEKPTCKAVTCRAVRQPQNGSVRCSHSPAGEFTFKSSCNFTCEEGFMLQGPAQVECTTQGQWTQQIPVCEAFQCTALSNPERGYMNCLPSASGSFRYGSSCEFSCEQGFVLKGSKRLQCGPTGEWDNEKPTCEAVRCDAVHQPPKGLVRCAHSPIGEFTYKSSCAFSCEEGFELHGSTQLECTSQGQWTEEVPSCQVVKCSSLAVPGKINMSCSGEPVFGTVCKFACPEGWTLNGSAARTCGATGHWSGLLPTCEAPTESNIP
notes: Fc-bearing control protein; bought; not shown: Fc, described as similar to the Fc of human IgG1 contained in the RAGE-Fc fusion protein

binding result [2]: no binding
binding result [3]: binds
B2: recombinant human HMGB-1 (manufactured by R&D Systems) (ligand, UniProt P09429 1-215, looked up)
chain: MGKGDPKKPRGKMSSYAFFVQTCREEHKKKHPDASVNFSEFSKKCSERWKTMSAKEKGKFEDMAKADKARYEREMKTYIPPKGETKKKFKDPNAPKRPPSAFFLFCSEYRPKIKGEHPGLSIGDVAKKLGEMWNNTAADDKQPYEKKAAKLKEKYEKDIAAYRAKGKPDAAKKGVVKAEKSKKKKEEEEDEEDEEDEEEEEDEEDEDEEEDDDDE

binding result [4]: binds
binding result [5]: no binding
B3: recombinant human S100A8/A9 (manufactured by R&D Systems) (ligand)
chain 1: MLTELEKALNSIIDVYHKYSLIKGNFHAVYRDDLKKLLETECPQYIRKKGADVWFKELDINTDGAVNFQEFLILVIKMGVAAHKKSHEESHKE
chain 2: MTCKMSQLERNIETIINTFHQYSVKLGHPDTLNQGEFKELVRKDLQNFLKKENKNEKVIEHIMEDLDTNADKQLSFEEFIMLMARLTWASHEKMHEGDEGPGHHHKPGLGEGTP
notes: Bought
